Source: paper PMC4355161
Like-named read-outs stand apart in the source and are kept apart here.

What was measured:
[1] = target: 0/20 H2A T11C-Cy3 nucleosomes (UniProt P06897); assay: FRET or BRET
[2] = target: 0/20 Cy3 DNA(−25) nucleosomes; assay: FRET or BRET
[3] = target: 0/20 Cy3 DNA(+20) nucleosomes; assay: FRET or BRET
[4] = target: 0/20 H2A T11C-Cy3 nucleosomes (UniProt P06897); assay: FRET or BRET; remark: listed apart in the source
[5] = target: 0/20 Cy3 DNA(−25) nucleosomes; assay: FRET or BRET; remark: listed apart in the source
[6] = target: 0/20 Cy3 DNA(+20) nucleosomes; assay: FRET or BRET; remark: listed apart in the source
[7] = target: 30/30 nucleosomes labeled with Cy3 on H4 A15C (UniProt P62799); assay: other fluorescence titration

Row | Substance | FRET ratio [1] | FRET ratio [2] | FRET ratio [3] | FRET ratio [4] | FRET ratio [5] | FRET ratio [6] | fold preference over core nucleosomes [7] | fold tighter binding than to core nucleosomes [7]
1 | SNF2h A930C-Cy5 (from UniProt O60264 1-729; O60264 730-1052) (enzyme) | 0.56 | 0.49 | 0.34 | 0.39 | 0.4 | 0.51 | – | –
2 | wild type SNF2h (from UniProt O60264 1-1052) (enzyme) | – | – | – | – | – | – | 4.9 fold | 2.1 fold
